{"source": "patent US20150020238", "proteins": {"B1": {"name": "human enterokinase light chain protein produced in transformed rice suspension cells (protein)", "chain": "IVGGSNAKEGAWPWVVGLYYGGRLLCGASLVSSDWLVSAAHCVYGRNLEPSKWTAILGLHMKSNLTSPQTVPRLIDEIVINPHYNRRRKDNDIAMMHLEFKVNYTDYIQPICLPEENQVFPPGRNCSIAGWGTVVYQGTTANILQEADVPLLSNERCQQQMPEYNITENMICAGYEEGGIDSCQGDSGGPLMCQENNRWFLAGVTSFGYKCALPNRPGVYARVSRFTEWIQSFLH"}}, "biological_target": "EGFP-hTNF-α fusion protein comprising the enterokinase-recognizing sequence, P01375", "sequence (P01375 other isoform, or with tags, fused parts or gaps)": "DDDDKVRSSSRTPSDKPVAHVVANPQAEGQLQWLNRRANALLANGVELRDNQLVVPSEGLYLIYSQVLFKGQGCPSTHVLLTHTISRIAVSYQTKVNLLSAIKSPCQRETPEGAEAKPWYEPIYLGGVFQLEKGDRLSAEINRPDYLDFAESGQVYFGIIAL"}
{"protein": "B1", "values": [{"measurement": "endopeptidase activity", "value": "exhibited the activity of the human enterokinase light chain protein, i.e., recognizing and cleaving the DDDDK amino acid sequence"}]}
